Measured values published in US20250171562A1 (ALK ABELL, published 2025).
Each block holds one binder with its values, some of them ahead of it.

Biological target: T1, recombinant human IgE (human, UniProt P01854-1 1-428)
T1 construct: made in-house (ALK); preloaded on immobilised FcεRIα in the displacement ELISA
Assay: IgE-FcεRIα displacement ELISA
Outline: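 Streptavidin-coated plates carried site-specifically biotinylated recombinant human FcεRIα, loaded with recombinant human IgE at 13 ng/ml. sdAbs in a pM–μM series were added for 1 h, and displaced IgE was washed off. Percent displacement was the signal reduction versus the no-sdAb control, giving EC50 and maximal effect.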

T1 sequence (P01854 other isoform, or with tags, fused parts or gaps): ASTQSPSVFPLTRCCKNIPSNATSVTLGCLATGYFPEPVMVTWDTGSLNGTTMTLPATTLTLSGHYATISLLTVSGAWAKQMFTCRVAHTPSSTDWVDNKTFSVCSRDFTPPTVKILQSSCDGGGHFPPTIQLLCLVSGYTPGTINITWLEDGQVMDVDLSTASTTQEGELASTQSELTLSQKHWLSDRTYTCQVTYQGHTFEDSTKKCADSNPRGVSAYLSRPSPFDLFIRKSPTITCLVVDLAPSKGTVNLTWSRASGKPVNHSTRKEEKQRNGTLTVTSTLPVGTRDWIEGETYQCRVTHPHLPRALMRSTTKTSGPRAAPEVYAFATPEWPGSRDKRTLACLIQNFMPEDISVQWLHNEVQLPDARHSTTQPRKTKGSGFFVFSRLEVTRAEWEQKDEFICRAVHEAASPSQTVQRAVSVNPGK

B2: CIgG4E3A1(G4S)2 (Fc fusion)
chain 1: GPPCPPCPAPEFLGGPSVFLFPPKPKDTLMISRTPEVTCVVVDVSQEDPEVQFNWYVDGVEVHNAKTKPREEQFNSTYRVVSVLTVLHQDWLNGKEYKCKVSNKGLPSSIEKTISKAKGQPREPQVYTLPPCQEEMTKNQVSLWCLVKGFYPSDIAVEWESNGQPENNYKTTPPVLDSDGSFFLYSRLTVDKSRWQEGNVFSCSVMHEALHNHYTQKSLSLSLGKGGGGSGGGGSDVQLQESGGGLVQAGGSLRLACAASGRTLSSYVVSWFRQAPGKERKFVAAITWSGLSTTYLDSVQGRFTISRDNTKDTVYLQMNSLKPQDTAIYYCAAGPNIPSILRTRESEYAYWGQGTQVTVS
chain 2: GPPCPPCPAPEFLGGPSVFLFPPKPKDTLMISRTPEVTCVVVDVSQEDPEVQFNWYVDGVEVHNAKTKPREEQFNSTYRVVSVLTVLHQDWLNGKEYKCKVSNKGLPSSIEKTISKAKGQPREPQVCTLPPSQEEMTKNQVSLSCAVKGFYPSDIAVEWESNGQPENNYKTTPPVLDSDGSFFLVSRLTVDKSRWQEGNVFSCSVMHEALHNHYTQKSLSLSLGKGGGGSGGGGSEVQLLESGGGLVQPGGSLRLSCAASGFTFGNYDMAWVRQAPGKRPEWVSSIDTGGDITHYADSVKGRFTISRDNAKNTLYLQMNSLRPEDTAVYWCATDEEYALGPNEFDYYGQGTLVTVSS
- EC50: 50 nM
- Max effect: > 95%

B3: CIgG4E4A1(G4S)2 (Fc fusion)
chain 1: GPPCPPCPAPEFLGGPSVFLFPPKPKDTLMISRTPEVTCVVVDVSQEDPEVQFNWYVDGVEVHNAKTKPREEQFNSTYRVVSVLTVLHQDWLNGKEYKCKVSNKGLPSSIEKTISKAKGQPREPQVYTLPPCQEEMTKNQVSLWCLVKGFYPSDIAVEWESNGQPENNYKTTPPVLDSDGSFFLYSRLTVDKSRWQEGNVFSCSVMHEALHNHYTQKSLSLSLGKGGGGSGGGGSDVQLQESGGGLVQPGGSLRLSCAASGFRFSNYAMRWYRQAPGKEREFVARISSTGFITRYTASVRDRFTISRDNDKNMMYLQLNKLTPQDTAHYYCNAESTDYWGQGTQVTVS
chain 2: B2 chain 2
- EC50: 48 nM
- Max effect: 90%

B4: CIgG4E3A1(G4S)3 (Fc fusion)
chain 1: GPPCPPCPAPEFLGGPSVFLFPPKPKDTLMISRTPEVTCVVVDVSQEDPEVQFNWYVDGVEVHNAKTKPREEQFNSTYRVVSVLTVLHQDWLNGKEYKCKVSNKGLPSSIEKTISKAKGQPREPQVYTLPPCQEEMTKNQVSLWCLVKGFYPSDIAVEWESNGQPENNYKTTPPVLDSDGSFFLYSRLTVDKSRWQEGNVFSCSVMHEALHNHYTQKSLSLSLGKGGGGSGGGGSGGGGSDVQLQESGGGLVQAGGSLRLACAASGRTLSSYVVSWFRQAPGKERKFVAAITWSGLSTTYLDSVQGRFTISRDNTKDTVYLQMNSLKPQDTAIYYCAAGPNIPSILRTRESEYAYWGQGTQVTVS
chain 2: GPPCPPCPAPEFLGGPSVFLFPPKPKDTLMISRTPEVTCVVVDVSQEDPEVQFNWYVDGVEVHNAKTKPREEQFNSTYRVVSVLTVLHQDWLNGKEYKCKVSNKGLPSSIEKTISKAKGQPREPQVCTLPPSQEEMTKNQVSLSCAVKGFYPSDIAVEWESNGQPENNYKTTPPVLDSDGSFFLVSRLTVDKSRWQEGNVFSCSVMHEALHNHYTQKSLSLSLGKGGGGSGGGGSGGGGSEVQLLESGGGLVQPGGSLRLSCAASGFTFGNYDMAWVRQAPGKRPEWVSSIDTGGDITHYADSVKGRFTISRDNAKNTLYLQMNSLRPEDTAVYWCATDEEYALGPNEFDYYGQGTLVTVSS
- EC50: 36 nM
- Max effect: 90%

Next, values leading:

- Max effect: 40%
B1: CIgG4E4A1(RS) (Fc fusion)
chain 1: GPPCPPCPAPEFLGGPSVFLFPPKPKDTLMISRTPEVTCVVVDVSQEDPEVQFNWYVDGVEVHNAKTKPREEQFNSTYRVVSVLTVLHQDWLNGKEYKCKVSNKGLPSSIEKTISKAKGQPREPQVYTLPPCQEEMTKNQVSLWCLVKGFYPSDIAVEWESNGQPENNYKTTPPVLDSDGSFFLYSRLTVDKSRWQEGNVFSCSVMHEALHNHYTQKSLSLSLGKRSDVQLQESGGGLVQPGGSLRLSCAASGFRFSNYAMRWYRQAPGKEREFVARISSTGFITRYTASVRDRFTISRDNDKNMMYLQLNKLTPQDTAHYYCNAESTDYWGQGTQVTVS
chain 2: GPPCPPCPAPEFLGGPSVFLFPPKPKDTLMISRTPEVTCVVVDVSQEDPEVQFNWYVDGVEVHNAKTKPREEQFNSTYRVVSVLTVLHQDWLNGKEYKCKVSNKGLPSSIEKTISKAKGQPREPQVCTLPPSQEEMTKNQVSLSCAVKGFYPSDIAVEWESNGQPENNYKTTPPVLDSDGSFFLVSRLTVDKSRWQEGNVFSCSVMHEALHNHYTQKSLSLSLGKRSEVQLLESGGGLVQPGGSLRLSCAASGFTFGNYDMAWVRQAPGKRPEWVSSIDTGGDITHYADSVKGRFTISRDNAKNTLYLQMNSLRPEDTAVYWCATDEEYALGPNEFDYYGQGTLVTVSS

- EC50: 22 nM
- Max effect: 95%
B5: CIgG4E4A1(G4S)3 (Fc fusion)
chain 1: GPPCPPCPAPEFLGGPSVFLFPPKPKDTLMISRTPEVTCVVVDVSQEDPEVQFNWYVDGVEVHNAKTKPREEQFNSTYRVVSVLTVLHQDWLNGKEYKCKVSNKGLPSSIEKTISKAKGQPREPQVYTLPPCQEEMTKNQVSLWCLVKGFYPSDIAVEWESNGQPENNYKTTPPVLDSDGSFFLYSRLTVDKSRWQEGNVFSCSVMHEALHNHYTQKSLSLSLGKGGGGSGGGGSGGGGSDVQLQESGGGLVQPGGSLRLSCAASGFRFSNYAMRWYRQAPGKEREFVARISSTGFITRYTASVRDRFTISRDNDKNMMYLQLNKLTPQDTAHYYCNAESTDYWGQGTQVTVS
chain 2: B4 chain 2

- EC50: 130 nM
- Max effect: 85%
B6: CIgG4E4A1(G4S)1 (Fc fusion)
chain 1: GPPCPPCPAPEFLGGPSVFLFPPKPKDTLMISRTPEVTCVVVDVSQEDPEVQFNWYVDGVEVHNAKTKPREEQFNSTYRVVSVLTVLHQDWLNGKEYKCKVSNKGLPSSIEKTISKAKGQPREPQVYTLPPCQEEMTKNQVSLWCLVKGFYPSDIAVEWESNGQPENNYKTTPPVLDSDGSFFLYSRLTVDKSRWQEGNVFSCSVMHEALHNHYTQKSLSLSLGKGGGGSDVQLQESGGGLVQPGGSLRLSCAASGFRFSNYAMRWYRQAPGKEREFVARISSTGFITRYTASVRDRFTISRDNDKNMMYLQLNKLTPQDTAHYYCNAESTDYWGQGTQVTVS
chain 2: GPPCPPCPAPEFLGGPSVFLFPPKPKDTLMISRTPEVTCVVVDVSQEDPEVQFNWYVDGVEVHNAKTKPREEQFNSTYRVVSVLTVLHQDWLNGKEYKCKVSNKGLPSSIEKTISKAKGQPREPQVCTLPPSQEEMTKNQVSLSCAVKGFYPSDIAVEWESNGQPENNYKTTPPVLDSDGSFFLVSRLTVDKSRWQEGNVFSCSVMHEALHNHYTQKSLSLSLGKGGGGSEVQLLESGGGLVQPGGSLRLSCAASGFTFGNYDMAWVRQAPGKRPEWVSSIDTGGDITHYADSVKGRFTISRDNAKNTLYLQMNSLRPEDTAVYWCATDEEYALGPNEFDYYGQGTLVTVSS
